This note sets out measurements from PMC2739136.

What all share (experiment): pull-down
In one data set the target is T1, MBP-TraR K119A, P33905.
T1 chain: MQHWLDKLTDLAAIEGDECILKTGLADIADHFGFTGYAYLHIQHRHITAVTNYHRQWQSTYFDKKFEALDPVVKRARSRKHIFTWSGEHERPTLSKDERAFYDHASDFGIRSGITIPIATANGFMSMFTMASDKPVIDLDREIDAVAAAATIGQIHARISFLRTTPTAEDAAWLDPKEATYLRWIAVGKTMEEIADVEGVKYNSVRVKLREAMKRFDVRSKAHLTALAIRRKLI

The target of a further data set is T2, MBP-TraR I229Y, P33905.
T2 chain: T1 chain with A119K, I229Y

Another data set has as its target MBP-TraR N122A, P33905.
The target of another data set is T3, MBP-TraR A150V, P33905.
T3 chain: T1 chain with A119K, A150V

Another data set has as its target T4, MBP-TraR T225S, P33905.
T4 chain: T1 chain with A119K, T225S

Another data set deals with T5, MBP-TraR G153A, P33905.
T5 chain: T1 chain with A119K, G153A

The target in another data set is T6, MBP-TraR A157V, P33905.
T6 chain: T1 chain with A119K, A157V

For a further data set, the target named is T7, MBP-TraR V146A, P33905.
T7 chain: T1 chain with A119K, V146A

Substitutions are numbered along the chain they refer to.

B1: native TraR (wild type) (protein)
chain: T1 chain with A119K
Consider B1, for which the heterodimer formation (% of wild type) (% of wild type) came to 94 with MBP-TraR K119A, P33905; 23 with MBP-TraR I229Y, P33905; 28 in the data set with MBP-TraR N122A, P33905; 15 with MBP-TraR A150V, P33905; 43 with MBP-TraR T225S, P33905; 61 with MBP-TraR G153A, P33905. The heterodimer formation (% of wild type) (% of wild type) came out at 50 with MBP-TraR A157V, P33905 and 61 with MBP-TraR V146A, P33905.
